± gives the uncertainty stated by the source.
Assay: protein stability index of a GFP-peptide fusion (yeast GPS) (PSI 1-4); higher = more stable; sorted into four equal gates, so the index is relative within each strain
How it was run: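 Each library plasmid carries Cherry plus GFP with a tiled 17-residue yeast protein peptide fused downstream, and the pooled library was carried in yeast. Mid-log cultures in leucine-free medium were sorted into four equal gates by GFP/Cherry ratio. Reads from Illumina sequencing of PCR-amplified plasmids from each gate were assigned to strains by barcodes. Per peptide, the protein stability index was computed as the summed products of gate read frequency and gate number.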

| Sequence | protein stability index (doa10∆) | protein stability index (pdr5∆) | protein stability index (san1∆) | protein stability index (ubr1∆) |
| --- | --- | --- | --- | --- |
| MATIASEYSSEASNTPI [PRE7] | 2.53 ± 0.094 | 2.76 ± 0.14 | 2.83 ± 0.08 | 2.93 ± 0.13 |
| PPGYEIEELDNPMVPSS [PRP8] | 2.42 ± 0.1 | 2.65 ± 0.066 | 3.26 ± 0.085 | 2.82 ± 0.049 |
| LQEKFLNQIATLKIHLK [IRR1] | 1.22 ± 0.12 | 1.4 ± 0.11 |  | 1.03 ± 0.093 |
| AIITDDLDTVLKKDIES [SRP72] | 1.99 ± 0.047 | 2.32 ± 0.047 | 2.43 ± 0.061 | 2.43 ± 0.049 |
| RNTYQSAMGKQAMGVFL [RPB2] | 1.62 ± 0.097 | 1.63 ± 0.11 | 1.53 ± 0.12 | 1.79 ± 0.052 |
| RSKFGGDFLDFQVHERL [ARP7] | 3.15 ± 0.11 | 3.11 ± 0.1 | 3.5 ± 0.075 | 3.32 ± 0.075 |
| APSANQGDEALSVDDIR [RTT102] | 3.15 ± 0.093 | 3.33 ± 0.1 | 2.98 ± 0.088 |  |
| PSCVYNLIGVITHQGAN [UBP6] | 2.64 ± 0.14 | 2.9 ± 0.13 | 2.99 ± 0.13 | 2.48 ± 0.18 |
| QRDRHTLAYDRGHRIRR [PRP8] | 3.01 ± 0.1 | 3.21 ± 0.074 | 2.83 ± 0.095 | 2.87 ± 0.048 |
| KNKGLVVSPYDYNHKRV [DIB1] | 3.18 ± 0.12 | 3.19 ± 0.11 | 3.02 ± 0.14 | 3.35 ± 0.17 |
| MSSEIAYSNTNTNTENE [SNF11] |  |  | 2.64 ± 0.24 | 3.04 ± 0.2 |
| RGLTPQEFFFHAMGGRE [RPO21] | 2.32 ± 0.05 | 2.42 ± 0.054 | 2.2 ± 0.074 | 2.35 ± 0.046 |
| ILLQHKEKLTVQDCRYS [POP1] | 2.53 ± 0.054 | 2.45 ± 0.049 | 2.31 ± 0.05 | 2.42 ± 0.03 |
| GEIQLLFQRQKLHEFYL [IRR1] | 2.71 ± 0.12 | 2.96 ± 0.075 | 2.63 ± 0.061 | 2.9 ± 0.16 |
| GILLETISVPQIRDVME [RRP6] | 2.74 ± 0.072 | 2.56 ± 0.06 | 2.89 ± 0.056 | 2.64 ± 0.067 |
| LFDAAFYMKKDAVEGVS [RPO31] | 2.75 ± 0.24 | 2.96 ± 0.14 | 3.31 ± 0.076 | 2.65 ± 0.11 |
| SLLLAHFFSKSCSFFAK [NUT1] | 1.83 ± 0.057 | 1.62 ± 0.043 | 1.61 ± 0.074 | 1.68 ± 0.039 |
| QNAKLLANLIRDALRNI [RRP6] | 2.17 ± 0.055 | 2.18 ± 0.062 | 2.36 ± 0.084 | 2.23 ± 0.043 |
| QLLEKAPIPIREDIDDP [BRR2] | 2.64 ± 0.064 | 2.55 ± 0.066 | 2.37 ± 0.088 | 1.92 ± 0.058 |
| PDPNFENSIGYNNRKCW [PRP8] | 3.02 ± 0.098 | 2.97 ± 0.1 | 2.98 ± 0.21 | 3.11 ± 0.12 |
| TPPAIEHKPVSPDKIGT [SSN2] | 3.03 ± 0.072 | 3.35 ± 0.066 | 3.12 ± 0.076 | 3.17 ± 0.06 |
| CVQLIKCLVEKSICFEN [SWI1] | 2.49 ± 0.25 | 2.61 ± 0.25 | 2.28 ± 0.17 | 2.74 ± 0.15 |
| SVQNLDQLLTDLIETSF [NUT1] | 2.9 ± 0.15 | 2.64 ± 0.1 | 2.94 ± 0.066 | 2.85 ± 0.11 |
| SDTLKEFKIEQNNEQNP [YDL116W/NUP84] | 2.79 ± 0.23 | 3.01 ± 0.15 | 2.8 ± 0.1 | 3.3 ± 0.22 |
| VVAAAEDDDNEQHEEKA [QCR6] | 2.87 ± 0.12 | 2.98 ± 0.15 |  | 3.07 ± 0.16 |
| KKLPRKTHRGLRKVACI [RPL3] | 1.61 ± 0.062 | 3.5 ± 0.098 | 2.65 ± 0.064 | 3.23 ± 0.058 |
| KKKRFEIKKWTAVAFWS [HRT1] | 1.97 ± 0.18 | 1.58 ± 0.12 | 1.55 ± 0.26 | 2.27 ± 0.1 |

| Sequence | protein stability index (doa10∆) | protein stability index (pdr5∆) | protein stability index (san1∆) | protein stability index (ubr1∆) |
| --- | --- | --- | --- | --- |
| DWVRFLALALGILYMGQ [RPN1] | 1.36 ± 0.096 | 1.45 ± 0.086 | 2.08 ± 0.14 | 1.24 ± 0.18 |
| AAMVIMHLMALHIHGSS [COB] | 1.9 ± 0.051 | 1.48 ± 0.059 | 1.35 ± 0.093 | 1.35 ± 0.044 |
| KELVECHLYSQRMHAIH [NNF1] | 1.96 ± 0.056 | 2.05 ± 0.049 | 2.05 ± 0.085 | 2.23 ± 0.05 |
| QPKLNPMASSSSFGSES [SWI1] | 2.85 ± 0.064 | 3.28 ± 0.069 | 3.12 ± 0.048 | 2.92 ± 0.057 |
| KQYDNRITKSNEKSQAE [LRP1] | 2.91 ± 0.087 | 2.91 ± 0.11 | 2.77 ± 0.075 | 3.02 ± 0.037 |
| KSSAFVIDIGASGCNVT [ARP7] | 1.81 ± 0.039 | 2.46 ± 0.063 | 2.17 ± 0.067 | 2.55 ± 0.045 |
| NQNSSTGAGAFGTGQST [YJL041W/NSP1] | 2.33 ± 0.058 | 1.99 ± 0.062 | 2.31 ± 0.11 | 2.6 ± 0.048 |
| IDESMPDTAIDSQMDEA [GRR1] | 3.01 ± 0.093 | 3.08 ± 0.08 | 2.85 ± 0.078 | 3.06 ± 0.059 |
| RSALEKGSRFISTLQVK [RPB2] | 1.47 ± 0.13 | 1.23 ± 0.087 | 1.67 ± 0.19 | 1.6 ± 0.088 |
| ISNLTQEQVQDYVNKTN [FAS1] | 2.34 ± 0.047 | 2.81 ± 0.043 | 2.82 ± 0.057 | 2.27 ± 0.033 |
| IPQDFENEVSDIDVTIV [ESC2] | 2.96 ± 0.096 | 2.34 ± 0.092 | 2.77 ± 0.11 | 2.42 ± 0.054 |
| QRESQIGAAELNENARE [SNF12] | 3.22 ± 0.075 | 3.19 ± 0.063 | 2.93 ± 0.12 | 3.35 ± 0.044 |
| DSRKNREQSSNDSETHT [BRN1] | 3.68 ± 0.17 | 3.34 ± 0.19 | 3.34 ± 0.11 | 3.52 ± 0.14 |
| GPRNTEEKGWVPVTKLG [RPS2] | 3.55 ± 0.1 | 3.46 ± 0.1 | 3.61 ± 0.05 | 3.67 ± 0.082 |
| LPSEERIQKIISKRKEE [YIL149C/MLP2] | 1.74 ± 0.08 | 1.66 ± 0.074 | 1.41 ± 0.16 | 1.65 ± 0.055 |
| SFLGYLRYVKQIEGPFL [ISW2] | 2.28 ± 0.061 | 2.42 ± 0.046 | 2.45 ± 0.053 | 2.4 ± 0.04 |
| IGWCKEDPKRRADTMDF [YJL039C/NUP192] | 3.16 ± 0.21 | 3.56 ± 0.11 | 3.47 ± 0.13 | 3.39 ± 0.12 |
| AEKLVPLPICHANSVVA [YML031W/NDC1] | 1.68 ± 0.2 | 1.34 ± 0.091 | 1.61 ± 0.2 | 1.42 ± 0.16 |
| SMGTMICGYTRKEGPTI [PRE2] | 3.27 ± 0.078 | 3.21 ± 0.077 | 3.33 ± 0.039 | 2.71 ± 0.069 |
| LALTTLSEPLIKIGIRV [YCG1] | 1.81 ± 0.061 | 2.06 ± 0.047 | 1.74 ± 0.065 | 2.01 ± 0.057 |
| VPEFFQTANEKHITVRL [SRP14] | 3.02 ± 0.1 | 2.67 ± 0.11 | 3.01 ± 0.12 | 2.56 ± 0.1 |
| MDSKGKITIGIQRTTES [RGR1] | 3.44 ± 0.075 | 3.39 ± 0.066 | 3.33 ± 0.083 | 3.11 ± 0.075 |
| LKNCKISNINIPISSET [SMC1] | 2.81 ± 0.17 | 2.95 ± 0.11 | 3.05 ± 0.08 | 2 ± 0.067 |
| CYVGLLTAIPILLEPIY [SNU114] | 1.31 ± 0.045 | 1.23 ± 0.035 | 1.28 ± 0.064 | 1.34 ± 0.038 |
| SEVANNGLIISWSNGKI [RRP42] | 2.28 ± 0.13 | 1.66 ± 0.054 | 3.03 ± 0.091 | 2.54 ± 0.14 |
| ISYLQEVQCTSTPYLEI [PCI8] | 2.68 ± 0.16 |  | 1.7 ± 0.2 | 1.81 ± 0.22 |
